Biological target: HIV-1 BaL envelope glycoprotein (Env) trimer on AT-2 inactivated virions (HIV-1 (BaL))
Assay: cryo-EM structure

- stoichiometry N (17b Abs per Env trimer): 3
Substance: anti-coreceptor binding site (CoRBS) antibody 17b (full IgG)

Reference: paper PMC12669584
